Consider 30 sequences from the nanobody polyreactivity screen of Harvey et al. (2022).

A short description of the data set: yeast display, Sf9 membrane polyspecificity reagent, FACS + sequencing; frameworks hold sequencing errors. The procedure, abridged:
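Nanobodies came from a synthetic yeast display library in Saccharomyces cerevisiae BJ5465, induced with galactose for 36–48 hours and stained for 1 hour at 4 °C with 10% biotinylated, detergent-solubilized Sf9 membrane reagent. Cells were enriched on streptavidin microbeads and then FACS-sorted, with low and high (top ~1%) gates set on anti-HA fluorescence for expression and streptavidin fluorescence for reagent binding. Each polyreactivity label reflects the gate a clone came from. Genes were amplified by colony PCR, sequenced by MiSeq 2 × 250 and filtered by CDR length.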
Turning to “QVQLVESGGGLVQAGGSLRLSCAASGFTFSYSAMGGYSQAPGKERELVAAISRSGSGTSYADSVKGRFTISRDNAKNTVYLQMTSLKPEDTAVYYCAARGGTTRYGNDYWGQGTQVTVSS”, the “polyreactivity (PSR sort gate)” value is listed as “high polyreactivity”.

As for “QVQLVESGGGLVQAGGSLRLSCAASGFTFSYYAMGWYREAPGKERELVAAISQSGGSKYYADSVKGRFIISRDNAKNTVYLQMNSLKPEDTAVYYCNRGLRSHQSDDYWGLGTQVTVSS”, the “polyreactivity (PSR sort gate)” value was “high polyreactivity”.

Regarding “QVQLVESGGGLVQAGGSLRLSCAASGFTFSYYAMGWYRKAPGKEMELVAAINWNGGSTYYADSVKGRFTISRDNAKNTVYLQMNSLKPEDTAVYYCNARQSYRYTQHGYWGQGTQVTVSS”, the “polyreactivity (PSR sort gate)” value is on record as “high polyreactivity”.

Regarding “QVQLVESGGGLVQAGGSLRLSCAASGFTFSYYAMGWYRQAPAKEREVVAAISRSGGSTYYADSVKGRFTISRDNAKNTVYFQMNSLIPEDTAVYYCATDLYYRHGYCGQGTQVTVSS”, the “polyreactivity (PSR sort gate)” value was “high polyreactivity”.

Consider “QVQLVESGGGLVQAGGSLRLSCAASGFTFSYYAMGWYRQAPGKERELVAAISWSGGRTYYADSVKGRFTISRDNAKNTVYLQMNSLKPEDTAVYYCAVVYYGSIFVLEYDYWGQGTQVTVSS”, for which the “polyreactivity (PSR sort gate)” value is listed as “high polyreactivity”.

For “QVQLVESGGGLVQAGGSLRLSCAASGFTFSYYAMGWYRQAPGKERELVAAITSTGGSTYYADSVKGRFTISRDNAKNTVYLQMNSLKPEDTAVYYCATRGANRTGYKDDYWGQGTQVTVSS”, the “polyreactivity (PSR sort gate)” value is reported as “high polyreactivity”.

As to “QVQLVESGGGLVQAGGSLRLSCAASGFTFSYYAMGWYRQATGKETELVAGIDYSGGSTYYADSVKGRFTISRDNAKNTVYLQMNCLKPEDTAVYYCNAVYARIYYYSHGYDYWGQGTQVTVSS”, the “polyreactivity (PSR sort gate)” value is “high polyreactivity”.

For “QVQLVESGGGLVQAGGSLRLSCAASGFTFSYYGMVWYRQAPWKERELVAGISRGGSTYYADSVKGRFTISRDNAKNTVYLQMNSLKPEDTAVYYCAAAERLRHGLKFDYWGQGTQVTVSS”, the “polyreactivity (PSR sort gate)” value is on record as “high polyreactivity”.

Consider “QVQLVESGGGLVQAGGSLRLSCAASGFTFSYYPMGWYRLAPGKERELVAAITSGGSTYYADSVKGRFTISRDNAKNTVYLQMNSLKPEDTAVYYCNARGYGTLNVRRERMDYWGQGTQVTVSS”, for which the “polyreactivity (PSR sort gate)” value is on record as “high polyreactivity”.

Turning to “QVQLVESGGGLVQAGGSLRLSCAASGFTFTAYAMGLYRQAPGKERQLVAAINWSGSRTYYADSVKGRFTISRDNAKNTVYLQMNSLKPEDSAVYYCNTPTSKSSYRHYDYWGQGTQVTVSS”, the “polyreactivity (PSR sort gate)” value is on record as “high polyreactivity”.

With “QVQLVESGGGLVQAGGSLRLSCAASGFTFTAYAMGWYRQAPGKERELVAAISSGGSTYYADSVKGRFTISRDNAKNTVYLQMNSLKPEDTAVYYCAAVGVYTVKREYWGQGTQLTVSS”, the “polyreactivity (PSR sort gate)” value is listed as “low polyreactivity”.

For the sequence “QVQLVESGGGLVQAGGSLRLSCAASGFTFTAYAMGWYRQAPGKERELVAAISSGGSTYYADSVKGRFTISRDNAKNTVYLQMNSLKPEDTAVYYCSAVGVYTVKRDYWGQGTQVTVSS”, the “polyreactivity (PSR sort gate)” value is listed as “low polyreactivity”.

Take “QVQLVESGGGLVQAGGSLRLSCAASGFTFTDNAMGWSRQAPGKERELVAAISRGVGTNYADSVKGRFTISRDNAKNTVYLQMNSLKPEDTAVYYCAAGGRSVRYNYWGQGTQVTVSS”: the “polyreactivity (PSR sort gate)” value is reported as “high polyreactivity”.

In the case of “QVQLVESGGGLVQAGGSLRLSCAASGFTFTEYTMGRYRQAPGKERELVATISWSGGSTYYADSVKGRFTISRDNAKNTVYLQMNSLKPEDTAVYYCAKDQWPWVRDSLYTLRYDYWGQGTQVTVSS”, the “polyreactivity (PSR sort gate)” value is “low polyreactivity”.

For the sequence “QVQLVESGGGLVQAGGSLRLSCAASGFTFTGNVMGWYRQAPGKERELVAAISSRGVSTYYADSVKGRFTISRDNAKNTVYLQMNSLKPEDTAVYYCAVSRIVDFGQKMYYWGQGTQVTVSS”, the “polyreactivity (PSR sort gate)” value was “high polyreactivity”.

As for “QVQLVESGGGLVQAGGSLRLSCAASGFTFTGYAIGWYRQAPGKERELVAAITSNTGGTYYADSVKGRFTISRDNAKNTVYLEMNSLKAEDTAVYYCAAGHSGGQVDTIFQGMDYWGQGTQVTVSS”, the “polyreactivity (PSR sort gate)” value is “low polyreactivity”.

In the case of “QVQLVESGGGLVQAGGSLRLSCAASGFTFTKYAMGWYRQAPGKERELVAAISGRGGSTYYADSVKGRFTISRDNAKNTVYLQMNRLKPEDTAVYYCAKYLYTVAGYNYWGQGTQVTVSS”, the “polyreactivity (PSR sort gate)” value is “high polyreactivity”.

For the sequence “QVQLVESGGGLVQAGGSLRLSCAASGFTFTPYGMGWYRQAPGKERALVAAITWNGGRTYYADSVKGRFTISRDNAKNTVYLQMNSLKPEDTAVDYCAAVAWSWQKRGYWGQGTQVTVSS”, the “polyreactivity (PSR sort gate)” value was “high polyreactivity”.

“QVQLVESGGGLVQAGGSLRLSCAASGFTFTRNAMGLYRQAPGKERELFAAISKRGGTTYYADSVKGRFSISRDYAKNTVYLQMNSLKPEDTAVYYCAKDGGITGGYWGQGSQVTVSS”: the “polyreactivity (PSR sort gate)” value was “high polyreactivity”.

Regarding “QVQLVESGGGLVQAGGSLRLSCAASGFTFTRNAMGWYRQAPGKERELVAAISSSGTSTYYADSVKGRFTISRDNAKNTVYLQMNSLKPEDTAVYYCAKDFYRRYYSWGLGTQVTVSS”, the “polyreactivity (PSR sort gate)” value was “high polyreactivity”.

Regarding “QVQLVESGGGLVQAGGSLRLSCAASGFTFTRNVMGWYRQAPGKERELVAAINASGGRTYYADSVKGRFTISRDNAKNTVYLQMNSLKPEDTAVYYCAARDTQLGGSRGGSWGQGTQVTVSS”, the “polyreactivity (PSR sort gate)” value was “high polyreactivity”.

In the case of “QVQLVESGGGLVQAGGSLRLSCAASGFTFTRYAKGWYRQAPGKERELVAAISQNGGSTYYADSVKGRFTISRDNAKNTVYLQMNSLKPEDTAVYYCYAGVRRTIAFDYWGQGTQVTVSS”, the “polyreactivity (PSR sort gate)” value is reported as “high polyreactivity”.

Consider “QVQLVESGGGLVQAGGSLRLSCAASGFTFTRYGMGWYRQAPGKERELVAGISSGGSTNYADSVKGRFTISRDNAKNTVYLQRNSLKPEDTAVYYCAARAKRYNVRFDYWGQGTQVTVSS”, for which the “polyreactivity (PSR sort gate)” value is given as “high polyreactivity”.

Regarding “QVQLVESGGGLVQAGGSLRLSCAASGFTFTRYTMGWYRQAPGKERELVAHITSGDSTNYADSVKGRFTISRDNAKNTVYLQMNSLKPEDTAVYYCNAEVKGFFYDYDYWGQGTQVTVSS”, the “polyreactivity (PSR sort gate)” value is “low polyreactivity”.

“QVQLVESGGGLVQAGGSLRLSCAASGFTFTSNAMGWYRQAPGKEREFVADISNIGGDTTYADSVKGRFTISRDNAKNTVYLQMNSLKPEDTAVYYCKADFAFIENDYWGQGTQVTVSS”: the “polyreactivity (PSR sort gate)” value was “low polyreactivity”.

In the case of “QVQLVESGGGLVQAGGSLRLSCAASGFTFTSNAMGWYRQAPGKEREFVADISNIGGDTTYADSVKGRFTISRDNAKNTVYLQMNSLKPEDTAVYYCNADFAFIENDYWGQGTQVTVSS”, the “polyreactivity (PSR sort gate)” value is “low polyreactivity”.

Turning to “QVQLVESGGGLVQAGGSLRLSCAASGFTFTSNIMGWYRQATGKERELVADISASDGRTYYADSVKGRFTISRDNAMNTVYLQMNSLKPEDTAVYYCNVSSRRLRGLDYWGQGTQVTVSS”, the “polyreactivity (PSR sort gate)” value is “low polyreactivity”.

For the sequence “QVQLVESGGGLVQAGGSLRLSCAASGFTFTSYTMGWYRQAPGKERELVAAISYSGGNTYYADSVKGRFTISRDNAKNTVYLQMNSLKQEDTAVYYCAARYWYDSSNYSYDYWGQGTQVTVSS”, the “polyreactivity (PSR sort gate)” value is given as “low polyreactivity”.

Turning to “QVQLVESGGGLVQAGGSLRLSCAASGFTFTSYVMGWSRQAPGKEREFVAAITRSAGGTYYADSVKGRFTISRDNAKNTVYLQMNSLKPEDTAVYYCAAVYRSGSRYYLGWYNYWGQGTQVTVSS”, the “polyreactivity (PSR sort gate)” value is “high polyreactivity”.

Consider “QVQLVESGGGLVQAGGSLRLSCAASGFTFTTNAMGWYRQAPGKERELVAAISKRGTRTYYADSVKGRFTISRDNAKNTVYLQMNSLKPEDTAVYYCAAASVAGDKFDYWGQGSQVTVSS”, for which the “polyreactivity (PSR sort gate)” value is on record as “high polyreactivity”.
